Experimental data taken from the supplement of paper PMC11780869.

Tested on: Bacillus subtilis
Test: cleaved RNA product abundance (RNA/gDNA barcode ratio) relative to median wild-type variant (ratio to wild type); higher = more accumulation of the downstream cleavage product
Settings: cleavage site: cggR-gapA (positions -7 to +36 mutated)
Method in brief: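 Oligos with a 9% error rate were used to build barcoded, mutagenized RNase Y cleavage-site windows within truncated aprE or tetM reporter mRNAs, which were integrated into the B. subtilis chromosome. Cultures were grown in LB at 37°C between OD600 0.0003 and 0.3. Cleaved RNA was gel-selected, reverse transcribed and barcode-sequenced, as were genomic DNA barcodes, and UMIs were collapsed. Cleaved product abundance is the scaled RNA:gDNA barcode ratio, with the median construct carrying the unmutated site as reference.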

[1] = experiment (reporter, strain, medium): exp 2b: truncated aprE reporter, strain BJT200
[2] = experiment (reporter, strain, medium): exp 4a: truncated aprE reporter, strain BJT201 with 2% xylose (RNase J1 expressed)

Sequence | cleaved RNA product abundance [1] | cleaved RNA product abundance [2] | cleaved RNA product abundance (experiment (reporter, strain, medium): exp 6: tetM reporter, strain 168)
ACAGACGAAGGAGCCGCAAAGAAGTTATTAAGGGATTAACAATCCCTCAATATAAATATCTCTCACTTATTTAAA | 1.08 | 0.961 | –
ACAGACGAAGGAGCCGCAAAGAAGTTATTAAGGGATTAAGAATCCCTCAATATAAATATCTCTCACTTATTTAAA | – | 1.06 | –
ACAGACGAAGGAGCCGCAAAGAAGTTATTAAGGGATTAATAAACCCTCAATATAAATATCTCTCACTTATTTAAA | 0.559 | 0.575 | –
ACAGACGAAGGAGCCGCAAAGAAGTTATTAAGGGATTAATAACCCCTCAATATAAATATCTCTCACTTATTTAAA | 0.749 | 0.72 | –
ACAGACGAAGGAGCCGCAAAGAAGTTATTAAGGGATTAATAAGCCCTCAATATAAATATCTCTCACTTATTTAAA | 0.453 | 0.667 | –
ACAGACGAAGGAGCCGCAAAGAAGTTATTAAGGGATTAATAATACCTCAATATAAATATCTCTCACTTATTTAAA | 0.139 | 0.187 | –
ACAGACGAAGGAGCCGCAAAGAAGTTATTAAGGGATTAATAATCACTCAATATAAATATCTCTCACTTATTTAAA | – | 0.129 | –
ACAGACGAAGGAGCCGCAAAGAAGTTATTAAGGGATTAATAATCCATCAATATAAATATCTCTCACTTATTTAAA | 0.401 | 0.288 | –
ACAGACGAAGGAGCCGCAAAGAAGTTATTAAGGGATTAATAATCCCACAATATAAATATCTCTCACTTATTTAAA | 0.238 | 0.347 | –
ACAGACGAAGGAGCCGCAAAGAAGTTATTAAGGGATTAATAATCCCCCAATATAAATATCTCTCACTTATTTAAA | – | 0.272 | –
ACAGACGAAGGAGCCGCAAAGAAGTTATTAAGGGATTAATAATCCCGCAATATAAATATCTCTCACTTATTTAAA | – | 0.225 | –
ACAGACGAAGGAGCCGCAAAGAAGTTATTAAGGGATTAATAATCCCTAAATATAAATATCTCTCACTTATTTAAA | 0.535 | 0.745 | –
ACAGACGAAGGAGCCGCAAAGAAGTTATTAAGGGATTAATAATCCCTCAAAATAAATATCTCTCACTTATTTAAA | 0.334 | 0.419 | –
ACAGACGAAGGAGCCGCAAAGAAGTTATTAAGGGATTAATAATCCCTCAACATAAATATCTCTCACTTATTTAAA | – | 0.444 | –
ACAGACGAAGGAGCCGCAAAGAAGTTATTAAGGGATTAATAATCCCTCAAGATAAATATCTCTCACTTATTTAAA | 0.203 | 0.254 | –
ACAGACGAAGGAGCCGCAAAGAAGTTATTAAGGGATTAATAATCCCTCAATATAAACATCTCTCACTTATTTAAA | – | 0.803 | –
ACAGACGAAGGAGCCGCAAAGAAGTTATTAAGGGATTAATAATCCCTCAATATAAAGATCTCTCACTTATTTAAA | 0.486 | 0.818 | –
ACAGACGAAGGAGCCGCAAAGAAGTTATTAAGGGATTAATAATCCCTCAATATAAATAACTCTCACTTATTTAAA | 1.02 | 0.594 | –
ACAGACGAAGGAGCCGCAAAGAAGTTATTAAGGGATTAATAATCCCTCAATATAAATATATCTCACTTATTTAAA | – | 1.23 | –
ACAGACGAAGGAGCCGCAAAGAAGTTATTAAGGGATTAATAATCCCTCAATATAAATATCTCTCACTTATTTAAA | 0.996 | 0.958 | 1.09

Sequence | cleaved RNA product abundance [1] | cleaved RNA product abundance [2] | cleaved RNA product abundance (experiment (reporter, strain, medium): exp 6: tetM reporter, strain 168)
ACAGACGAAGGAGCCGCAAAGAAGTTATTAAGGGATTAATAATCCCTCAATATAAATCTCTCTCACTTATTTAAA | – | 0.637 | –
ACAGACGAAGGAGCCGCAAAGAAGTTATTAAGGGATTAATAATCCCTCAATATAAATGTCTCTCACTTATTTAAA | – | 0.707 | –
ACAGACGAAGGAGCCGCAAAGAAGTTATTAAGGGATTAATAATCCCTCAATATAAATTTCTCTCACTTATTTAAA | 0.686 | 0.57 | –
ACAGACGAAGGAGCCGCAAAGAAGTTATTAAGGGATTAATAATCCCTCAATATAATTATCTCTCACTTATTTAAA | – | 0.43 | –
ACAGACGAAGGAGCCGCAAAGAAGTTATTAAGGGATTAATAATCCCTCAATATACATATCTCTCACTTATTTAAA | – | 0.799 | –
ACAGACGAAGGAGCCGCAAAGAAGTTATTAAGGGATTAATAATCCCTCAATATATATATCTCTCACTTATTTAAA | – | 0.957 | –
ACAGACGAAGGAGCCGCAAAGAAGTTATTAAGGGATTAATAATCCCTCAATATCAATATCTCTCACTTATTTAAA | – | 0.0629 | –
ACAGACGAAGGAGCCGCAAAGAAGTTATTAAGGGATTAATAATCCCTCAATCTAAATATCTCTCACTTATTTAAA | 0.164 | – | –
ACAGACGAAGGAGCCGCAAAGAAGTTATTAAGGGATTAATAATCCCTCAATGTAAATATCTCTCACTTATTTAAA | – | 0.108 | –
ACAGACGAAGGAGCCGCAAAGAAGTTATTAAGGGATTAATAATCCCTCAATTTAAATATCTCTCACTTATTTAAA | – | 0.176 | –
ACAGACGAAGGAGCCGCAAAGAAGTTATTAAGGGATTAATAATCCCTCACTATAAATATCTCTCACTTATTTAAA | 0.233 | 0.26 | –
ACAGACGAAGGAGCCGCAAAGAAGTTATTAAGGGATTAATAATCCCTCAGTATAAATATCTCTCACTTATTTAAA | – | 0.224 | –
ACAGACGAAGGAGCCGCAAAGAAGTTATTAAGGGATTAATAATCCCTCATTATAAATATCTCTCACTTATTTAAA | 0.247 | 0.534 | –
ACAGACGAAGGAGCCGCAAAGAAGTTATTAAGGGATTAATAATCCCTCCATATAAATATCTCTCACTTATTTAAA | – | 0.197 | –
ACAGACGAAGGAGCCGCAAAGAAGTTATTAAGGGATTAATAATCCCTCGATATAAATATCTCTCACTTATTTAAA | – | 0.594 | –
ACAGACGAAGGAGCCGCAAAGAAGTTATTAAGGGATTAATAATCCCTCTATATAAATATCTCTCACTTATTTAAA | – | 0.547 | –
ACAGACGAAGGAGCCGCAAAGAAGTTATTAAGGGATTAATAATCCCTGAATATAAATATCTCTCACTTATTTAAA | – | 0.768 | –
ACAGACGAAGGAGCCGCAAAGAAGTTATTAAGGGATTAATAATCCCTTAATATAAATATCTCTCACTTATTTAAA | – | 0.563 | –
ACAGACGAAGGAGCCGCAAAGAAGTTATTAAGGGATTAATAATCCGTCAATATAAATATCTCTCACTTATTTAAA | – | 0.165 | –
ACAGACGAAGGAGCCGCAAAGAAGTTATTAAGGGATTAATAATCCTTCAATATAAATATCTCTCACTTATTTAAA | 0.431 | 0.39 | –

Sequence | cleaved RNA product abundance [1] | cleaved RNA product abundance [2] | cleaved RNA product abundance (experiment (reporter, strain, medium): exp 6: tetM reporter, strain 168)
ACAGACGAAGGAGCCGCAAAGAAGTTATTAAGGGATTAATAATCGCTCAATATAAATATCTCTCACTTATTTAAA | 0.109 | 0.0904 | –
ACAGACGAAGGAGCCGCAAAGAAGTTATTAAGGGATTAATAATCTCTCAATATAAATATCTCTCACTTATTTAAA | 0.716 | – | –
ACAGACGAAGGAGCCGCAAAGAAGTTATTAAGGGATTAATAATGCCTCAATATAAATATCTCTCACTTATTTAAA | 0.14 | 0.125 | –
ACAGACGAAGGAGCCGCAAAGAAGTTATTAAGGGATTAATAATTCCTCAATATAAATATCTCTCACTTATTTAAA | 0.543 | 0.569 | –
ACAGACGAAGGAGCCGCAAAGAAGTTATTAAGGGATTAATATTCCCTCAATATAAATATCTCTCACTTATTTAAA | – | 1.13 | –
ACAGACGAAGGAGCCGCAAAGAAGTTATTAAGGGATTAATCATCCCTCAATATAAATATCTCTCACTTATTTAAA | – | 1.2 | –
ACAGACGAAGGAGCCGCAAAGAAGTTATTAAGGGATTATTAATCCCTCAATATAAATATCTCTCACTTATTTAAA | 0.957 | 1.09 | –
ACAGACGAAGGAGCCGCAAAGAAGTTATTAAGGGATTGAATAATCCCTCAATATAAATATCTCTCACTTATTTAA | – | 0.788 | –
ACAGACGAAGGAGCCGCAAAGAAGTTATTAAGGGATTGATAATCCCTCAATATAAATATCTCTCACTTATTTAAA | – | 0.889 | –
ACAGACGAAGGAGCCGCAAAGAAGTTATTAAGGGATTTATAATCCCTCAATATAAATATCTCTCACTTATTTAAA | – | 0.931 | –
ACAGACGAAGGAGCCGCAAAGAAGTTATTAAGGGCAGAATAATCCCTCAATATAAATATCTCTCACTTATTTAAA | 0.174 | – | –
ACAGACGAAGGAGCCGCAAAGAAGTTATTAAGGGCTAAATAATCCCTCAATATAAATATCTCTCACTTATTTAAA | 0.389 | 0.368 | –
ACAGACGAAGGAGCCGCAAAGAAGTTATTAAGGGCTGAAAAATCCCTCAATATAAATATCTCTCACTTATTTAAA | 0.212 | – | –
ACAGACGAAGGAGCCGCAAAGAAGTTATTAAGGGCTGAACAATCCCTCAATATAAATATCTCTCACTTATTTAAA | – | 0.156 | –
ACAGACGAAGGAGCCGCAAAGAAGTTATTAAGGGCTGAATAAACCCTCAATATAAATATCTCTCACTTATTTAAA | – | 0.47 | –
ACAGACGAAGGAGCCGCAAAGAAGTTATTAAGGGCTGAATAACCCCTCAATATAAATATCTCTCACTTATTTAAA | – | 0.424 | –
ACAGACGAAGGAGCCGCAAAGAAGTTATTAAGGGCTGAATAATCCATCAATATAAATATCTCTCACTTATTTAAA | 0.084 | 0.0979 | –
ACAGACGAAGGAGCCGCAAAGAAGTTATTAAGGGCTGAATAATCCCACAATATAAATATCTCTCACTTATTTAAA | – | 0.0873 | –
ACAGACGAAGGAGCCGCAAAGAAGTTATTAAGGGCTGAATAATCCCCCAATATAAATATCTCTCACTTATTTAAA | – | 0.157 | –
